The results in this text go back to patent US20140287419A1, “Compositions Having Dicamba Decarboxylase Activity and Methods of Use” (priority 2013, published 2014).

To fix the notation:
B1: 84 (protein, listed as Mycobacterium rhodesiae)
chain: MASLIALEEHYAWDPASEGNVVATWLRANNGVAYDRLYDRGPLRIEQMDAAGIDFQILSLFDPGVQDEVDAVRAVDLARRANDDLAESVRANPSRFGGFATLATQQPDAAVAEFDRAVTELGLVGGLINGHCQGRYLDDPAYEALFSRAEALGAPIYLHPTTPHPAVMDAWFAPYVGDGLHLASWGFAAETGTHVLRLIYSGLFDKFPRLQMIIGHLGEMLPFAAYRIDRYYGLGGGGTGHTLQHLPSDYLRNNFHVTTSGNFCSPALDCTLDVMGADRVMFSVDYPMDDNQTGADFLASYPMDDTNRRKVASENALRLFGDRIPAALRN
B2: 83 (protein, listed as Mycobacterium rhodesiae)
chain: MALIALEEHYAWSPVSAGNVVGSWLETHNVTAYQRLYDRGPLRLEQMDAAGIDFQILSLFDPGVQDDDDTARAVENARRANDDLAETVRAAPDRFGGFATLAPQDPDAAAAELERAVGELGLVGGLINGHTHGRYLDDPAYLGLFECAQRLGVPIYLHPTTPHPAVMDAWFAPYVKDGLHLASWGFAAETGTHALRLIYSGLFDTFPRLQMILGHLGEMLPYAAYRIDRYYGLGGGDDGGRLARLPSEYLRDNFHVTTSGNFNPVAFACALDVMGPDRLMFSVDYPMDDNVTGAEFLRNLEVDDDVRRKVAGENALQLFGDKIPRR
B3: 88 (protein, listed as Starkeya novella)
chain: MARKIALEEHFTTPELAGKYVARPTQSDALFADIERRLADFDELRLEMMDRAEIDLMVLSVTTPGVQGVRDTGEAIRLARGANDFLAREVQKRPSRYAGFAHLAMQDAEAAATELERAVRELGFRGALINGQTNGHYLDEDQYAPFWERVQELDVPVYLHPGNMADSPAMFAHRPELGGPIWAWTAETAAHALRLVFGGTFTRFPGAKVILGHMGETLPFLLWRLDSRREFDLGEKLAPDALPSAIIKRNIAVTTSGVCDPAPLVAALQALSDDNVMFSVDYPYEDPQLASKFIETAPIGEETRAKVCHGNAERLLGL
B4: 89 (protein, listed as Erwinia billingiae)
chain: MATNRRDFLKNATAVMAGSTVFAGSSHFASAAAVEPAAVQPPRRIIALEEHFMLPEFVGYLHETQQNLRNGLVDKVVTPLSDFGKGRLEIMDKNGVDFAVLSLSGPGVQAEPDRVKAVRLARYANDKLATEMQKNPRRYGGFAHLAMQDPLAAANELERCVKQLHMQGGMINGETDGLYLDDRRYDVFWERVEALNVPIYIHPGNPPDYPHMFAGHPEMWGPVWSWAVETCSHALRLIFSGTFDRYPGARVILGHMGETLPIQLWRLDSRYQIANQTFAIKHPPSWYAKKNITITTSGVCNDAALRCALDSMGSENVMFSIDYPFESTEIAVNWLKTANITEQERNAVAWGNATSILRLGA
B5: 82 (protein, listed as Rhodopseudomonas palustris)
chain: MAQNETPVIAIEEHYWDPEMVARFPAGENASPFSTLLTELGDVRLRAMDEAGIDVQVLSHGAPAAQKLPPDVAPELTRRVNDRLAEACARFPNRFAAFAALPTPAPEAAARELERCVRDLGFKGAMIHGLTNGLFIDDKRFWPIFEVAEKLDVPIYLHPSVPHADVTRYYYDDYAREFPTVIRPAWGFTVETATQAIRLILSRALESYPRLQIILGHLGETLPFLLWRINQALARPGQTPLDFRKQFCDHFHVTTSGFFSTPALICTMLELGIDRIMFAVDYPYVVNRDGTDWVQQLQISPDDKRKLVGGNARRLLKL
B6: 86 (protein, listed as Sphingopyxis alaskensis)
chain: MALGASVASREASAQMAKAPMRKIATEEAFATPELAKAWLEIARSEPNSSLDIPTGILSIFDNPRPGSNQDRFRRQLLDVDAERIRDMDEAGVDMQLLSVTIPGVQIFEPARAGELAVTTNDHLAAAIARRPTRFAGLACFAPHDPVQATREMERAVNALGLKGFIVNSHTQDLYLDDPRFAPVLEAAQSLDCPIYLHPRAPSNGMAAPFRDYSMGGSIWGFGVEAGTHAVRMILSGVFDRYPRLRIVLGHMGEALPFWMWRLDHMAARRAKDGRMKPLSLAPSEYFKRNFAVTTSGFESPDVLDLVIKVAGIENIMWAIDYPYESSRDAVTFIEGADLTASQRASIFHRNAVRHFRLS
B7: 81 (protein, listed as Verticillium dahliae)
chain: MAASTKPKVVDIHTHMYPPSYIDILTSRTAIPVVRTFPQAADPRLILLDAEQQALDAALQDPTAKPPGRPLTSHYASLDQKIHFMDTHSIDISVVSLANPWLDFIEPKEAAATARSVNDEFEAMCASQPGRLFFFAALPLTAPLPALLEAVRHVAELEHCRGVILGTSGLGSGLDDPELVPVLEAVAAAALTVFLHPHYGLPNDVWGPRASAEYGHVLPLALGFPMETTIAVARMYLAGVFDRVPALRMLLAHSGGTLPFLAGRIESCILHDGQLVAEGKVGAARRTIWDVLREQVYLDAVIYSEIGLKAAIAASGGADRLMFGTDHPFFPPLGTDEQAKKESRINAGGSRPMITGNAMINGHGGLCNHITQSDYQDVVL
B8: 85 (protein, listed as Maritimibacter alkaliphilus)
chain: MAADRKPGLVSVEEGFMIPEVVAELSRIAGGVPSMKSGPIAGPFMDDLLDIGKGRVARMDADGVAVQILALAAPGVQKFDPDTALALSRLTNDRLAEAIAAHPARFGGLAAAPPQAAREGAKELDRAITTLGLNGLIVNSHTNDLYLDDPSFWPLLEAAEALDVPVYLHPREPAAGIEGGLMAMTGFTVGWAYAVETGTHLLRMIAAGVFDRFPRLRIVLGHLGEMIPFMLDRIDNRYPFEMGVTGAKPLPRKPSDYFRDHVTVATSGMNFNAPMRAAIEVLGADKVMFAADYPMERQDEEVAKFAALDLTPDERKRIGEDNARRVFGL
B9: 87 (protein, listed as Novosphingobium sp.)
chain: MASDIATAADLQTGGRQGYLRIATEEAFATRDQIDVYLRMVRDGTADRGMTSLWGFYAQSPSARATQIIERLLDLGEQRLADMDAAGIDKAVLALTSPGVQPLLDMEEARRIAGNANDRLAERCAAHPDRFIGMTAVAPQDPQWSAREILRGATQLGFKGVQINSHTQGRYLDEPFFDPIFRALGDVGQPLYIHPGTPPDSMIGPLLDAGLDGAIYGFGVETGMHLLRLITAGIFDRYPDLQIMVGHMGEALPYWLYRLDYMHQAGIRSQRYERMRPLKRTIAGYFRSNVLVTCSGMAWEPAIQFARQVMGEDRVMYAMDYPYQYEADEVRALDVMDLSPESKRKFFQTNAERWFDL
B10: 90 (protein)
chain: MAATIDRVLYLGNATQRRYTSATVSVPRIFGKVALEEHVGTSIWAKYNLTPPANAVVGVLNRPPTLPNTLDTIARLDDINGRLSSMNHSGIGYVIVSLSSPGIQGVHDTALAIKFSTDINDELYLKYANAYPDKFAFFATVPMQDPVAAASELERAVSLLGAKGAAINGYTDIGPPGNSTTRYLDDPINAPFWSKVAALNVPIYLHPRAPPPSQQLVYNYPNNSLSAYPGLVTGGFAYGAETAVHALRLMLSGLFDTHPNIQIILGHAAEGLPFLIHRSDTQLAAEVPGTNGPYKRPLRYYLRNNFYATLSGVRRLSTTQCTLAEMGEERVLFSVDYPFQSNEDAADWFDGVEGMSVETKRKVARGNARRLFNLTVDLDERQIDGDFM
modifications: Pyrenophora tritici-repentis

The first data set can be described thus: 14C assay with IPTG-induced recombinant E. coli cells (14CO2 capture from [14C]-carboxyl-labeled dicamba). The following applies: IPTG-induced recombinant E. coli cells; [14C]-carboxyl-labeled dicamba; 14CO2 capture.
As for B1, the “Dicamba Decarboxylase Activity” value is “Low”.
On the same count and under the same terms, the value for B2 was “Low”.
Same read-out and setting: the value for B3 was “High”.
For the molecule B4, the “Dicamba Decarboxylase Activity” value is “High”.
As for B5, the “Dicamba Decarboxylase Activity” value was “Low”.
The same measure, in the same setting: the value for B6 was “Low”; that for B7 was “High”.
B8: the “Dicamba Decarboxylase Activity” value was “Low”.
Same read-out and setting: as for B9, the entry is “High”.
Same read-out and setting: as for B10, the entry is “Low”.

The data set is the same for the next values; noted with them: dicamba decarboxylation activity of the protein of the given SEQ ID NO.
Consider B1, for which the “Enzymatic Detection level” value is given as “Low”.
Same read-out and setting: the value for B2 was “Low”; that for B3 was “High”; that for B4 was “High”.
On the same count and under the same terms, the value for B5 was “Low”; that for B6 was “Low”.
Still for that read-out and setting: the value for B7 was “High”.
As to B8, the “Enzymatic Detection level” value is on record as “Low”.
Consider B9, for which the “Enzymatic Detection level” value is on record as “High”.
Still for that read-out and setting: the value for B10 was “Low”.
